Assay results as given in PMC7572768 (Biochemistry, 2020).
Numbering of substitutions follows the chain as printed.

How the values were obtained:
Assay in all cases: ELISA
[1] = target: cdMMP-14 N231A (Homo sapiens, UniProt P50281, N231A)
[2] = target: cdMMP-14 F198A (Homo sapiens, UniProt P50281, F198A)
[3] = target: cdMMP-14 P259 alanine mutant (Homo sapiens, UniProt P50281, P259 to Ala)
[4] = target: cdMMP-14 F260A (Homo sapiens, UniProt P50281, F260A)

B1: Fab 2B5 (Fab, V domains shown)
VH: EVQLVESGGGLVQPGGSLRLSCAASGFNLSYSSMHWVRQAPGKGLEWVASIYPYSGYTYYADSVKGRFTISADTSKNTAYLQMNSLRAEDTAVYYCARIGVNAWAVKMSQRMLATRGSGWYVMDYWGQGTLVTVSS
VL: DIQMTQSPSSLSASVGDRVTITCRASQSVSSAVAWYQQKPGKAPKLLIYSASSLYSGVPSRFSGSRSGTDFTLTISSLQPEDFATYYCQQSSSYPYSPITFGQGTKVEIK
[1]
  fold weakening of IC50 against cdMMP-14 wt: 14 fold

B2: Fab 3E2 (Fab, V domains shown)
VH: EVQLVESGGGLVQPGGSLRLSCAASGFNIYYYSIHWVRQAPGKGLEWVASIYPYSSYTYYADSVKGRFTISADTSKNTAYLQMNSLRAEDTAVYYCARGIKGLVFTGSQMKMLRRGNYNWYVMDYWGQGTLVTVSS
VL: DIQMTQSPSSLSASVGDRVTITCRASQSVSSAVAWYQQKPGKAPKLLIYSASSLYSGVPSRFSGSRSGTDFTLTISSLQPEDFATYYCQQSSYSLITFGQGTKVEIK
[2]
  IC50: > 900 nM
[3]
  IC50: > 900 nM

B3: Fab 3E9 (Fab, V domains shown)
VH: EVQLVESGGGLVQPGGSLRLSCAASGFNLYYSSMHWVRQAPGKGLEWVASIYPSYGSTYYADSVKGRFTISADTSKNTAYLQMNSLRAEDTAVYYCARNGRYPGFLKRAHKRLLNFKAYVMDYWGQGTLVTVSS
VL: B2 VL with S91G, Y93W, S94Y
[4]
  fold increase in IC50 against cdMMP-14 wt: 33 fold
